Results published in patent US20250295737A1 (AstraZeneca / MedImmune, published 2025).

T1: mouse RXFP1 (mouse, UniProt Q6R6I7 1-758)
T1 sequence (looked up): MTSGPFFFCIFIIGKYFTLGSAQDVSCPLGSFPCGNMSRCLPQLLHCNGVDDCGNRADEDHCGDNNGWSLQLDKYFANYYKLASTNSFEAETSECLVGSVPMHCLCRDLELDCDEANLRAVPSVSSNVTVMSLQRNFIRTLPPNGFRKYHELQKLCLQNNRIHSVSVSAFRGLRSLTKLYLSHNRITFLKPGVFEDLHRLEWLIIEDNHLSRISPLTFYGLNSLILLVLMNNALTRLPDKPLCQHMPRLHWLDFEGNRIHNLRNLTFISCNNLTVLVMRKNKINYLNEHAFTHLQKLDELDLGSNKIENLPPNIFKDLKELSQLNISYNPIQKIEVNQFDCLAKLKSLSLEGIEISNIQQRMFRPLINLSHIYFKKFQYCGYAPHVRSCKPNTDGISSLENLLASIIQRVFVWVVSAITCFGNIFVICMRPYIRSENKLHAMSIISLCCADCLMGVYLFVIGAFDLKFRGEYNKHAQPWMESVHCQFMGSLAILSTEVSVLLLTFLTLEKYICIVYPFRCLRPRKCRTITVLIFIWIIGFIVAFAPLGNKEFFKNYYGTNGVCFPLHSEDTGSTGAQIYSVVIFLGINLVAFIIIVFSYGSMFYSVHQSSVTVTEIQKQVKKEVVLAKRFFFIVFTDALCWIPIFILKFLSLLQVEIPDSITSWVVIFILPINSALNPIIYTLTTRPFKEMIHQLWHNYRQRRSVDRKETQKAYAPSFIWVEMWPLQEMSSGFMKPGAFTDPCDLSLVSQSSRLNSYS

T2: human RXFP1 (human, UniProt Q9HBX9 1-757)
T2 sequence (looked up): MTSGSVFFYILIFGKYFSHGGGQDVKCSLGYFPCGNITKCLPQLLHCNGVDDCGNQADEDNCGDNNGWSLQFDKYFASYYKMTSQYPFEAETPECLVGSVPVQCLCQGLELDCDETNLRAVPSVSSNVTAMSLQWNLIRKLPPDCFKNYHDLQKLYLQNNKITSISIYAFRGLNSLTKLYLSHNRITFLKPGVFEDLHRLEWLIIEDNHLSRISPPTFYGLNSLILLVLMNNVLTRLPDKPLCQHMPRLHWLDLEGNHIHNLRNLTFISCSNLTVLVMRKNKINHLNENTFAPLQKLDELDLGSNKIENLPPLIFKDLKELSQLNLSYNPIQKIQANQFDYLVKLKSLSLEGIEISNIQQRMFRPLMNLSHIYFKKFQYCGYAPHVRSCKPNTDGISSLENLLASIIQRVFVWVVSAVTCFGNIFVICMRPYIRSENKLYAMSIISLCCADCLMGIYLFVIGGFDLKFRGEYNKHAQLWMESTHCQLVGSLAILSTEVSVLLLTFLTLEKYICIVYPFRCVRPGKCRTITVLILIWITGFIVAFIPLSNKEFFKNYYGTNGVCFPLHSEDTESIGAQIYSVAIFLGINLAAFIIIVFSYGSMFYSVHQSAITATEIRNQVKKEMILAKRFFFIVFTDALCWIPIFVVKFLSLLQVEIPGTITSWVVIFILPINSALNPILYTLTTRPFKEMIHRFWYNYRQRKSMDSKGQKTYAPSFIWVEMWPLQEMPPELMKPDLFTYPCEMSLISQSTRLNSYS


Tests used:
Test in all cases: cell-based or functional assay
[1] = molecular target: T1, mouse RXFP1
[2] = molecular target: human RXFP2 (human, UniProt Q8WXD0 1-754)
Chain of human RXFP2 (Q8WXD0 whole entry): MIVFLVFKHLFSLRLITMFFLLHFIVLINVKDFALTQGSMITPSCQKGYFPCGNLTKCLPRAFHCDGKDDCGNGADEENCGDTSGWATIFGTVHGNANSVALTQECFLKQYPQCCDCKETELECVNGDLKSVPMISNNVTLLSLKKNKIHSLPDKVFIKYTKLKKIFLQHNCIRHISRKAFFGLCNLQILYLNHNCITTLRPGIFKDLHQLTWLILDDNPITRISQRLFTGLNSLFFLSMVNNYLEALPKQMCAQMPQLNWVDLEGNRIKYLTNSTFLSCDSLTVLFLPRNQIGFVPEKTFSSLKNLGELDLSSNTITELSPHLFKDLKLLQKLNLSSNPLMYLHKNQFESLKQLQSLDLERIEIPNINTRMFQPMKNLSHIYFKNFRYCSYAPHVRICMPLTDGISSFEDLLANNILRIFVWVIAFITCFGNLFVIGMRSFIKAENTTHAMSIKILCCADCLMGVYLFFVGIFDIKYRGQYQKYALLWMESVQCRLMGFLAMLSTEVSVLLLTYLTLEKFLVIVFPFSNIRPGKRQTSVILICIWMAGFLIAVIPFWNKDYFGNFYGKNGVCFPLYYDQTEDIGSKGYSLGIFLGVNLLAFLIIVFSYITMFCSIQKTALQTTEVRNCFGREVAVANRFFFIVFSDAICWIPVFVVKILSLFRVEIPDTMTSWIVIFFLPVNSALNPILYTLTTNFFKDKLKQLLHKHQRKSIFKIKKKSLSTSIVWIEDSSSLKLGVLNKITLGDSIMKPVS

[3] = molecular target: T2, human RXFP1

| Binder | EC50 mRXFP1 (M), cAMP HTRF assay [1] [M] | EC50 hRXFP2 (M), cAMP HTRF assay [2] [M] | EC50 hRXFP1 (M), cAMP HTRF assay [3] [M] |
| --- | --- | --- | --- |
| RELAX0039 (Fc fusion) chain 1: DKTHTACPPCPAPEFEGGPSVFLFPPKPKDTLMISRTPEVTCVVVDVSHEDPEVKFNWYVDGVEVHNAKTKPREEQYNSTYRVVSVLTVLHQDWLNGKEYKCKVSNKALPASIEKTISKAKGQPREPQVYTLPPCREEMTKNQVSLWCLVKGFYPSDIAVEWESNGQPENNYKTTPPVLDSDGSFFLYSKLTVDKSRWQQGNVFSCSVMHEALHNHYTQKSLSLSPGGGGGSGGGGSGGGGSGGGGGSQLYSALANMCCHVGCTKRSLARFC chain 2: DKTHTCPPCPAPEFEGGPSVFLFPPKPKDTLMISRTPEVTCVVVDVSHEDPEVKFNWYVDGVEVHNAKTKPREEQYNSTYRVVSVLTVLHQDWLNGKEYKCKVSNKALPASIEKTISKAKGQPREPQVCTLPPSREEMTKNQVSLSCAVKGFYPSDIAVEWESNGQPENNYKTTPPVLDSDGSFFLVSKLTVDKSRWQQGNVFSCSVMHEALHNHYTQKSLSLSPGGGGGSGGGGSGGGGSGGGGGSSWMEEVIKLCGRELVRAQIAICGMSTWS | 4.25e-11 | 1.08e-07 | 6.54e-11 |
| RELAX0040 (Fc fusion) chain 1: DKTHTACPPCPAPEFEGGPSVFLFPPKPKDTLMISRTPEVTCVVVDVSHEDPEVKFNWYVDGVEVHNAKTKPREEQYNSTYRVVSVLTVLHQDWLNGKEYKCKVSNKALPASIEKTISKAKGQPREPQVYTLPPCREEMTKNQVSLWCLVKGFYPSDIAVEWESNGQPENNYKTTPPVLDSDGSFFLYSKLTVDKSRWQQGNVFSCSVMHEALHNHYTQKSLSLSPGGGGGSGGGGSGGGGSGGGGGSQLYSALANLCCHVGCTKRSLARFC chain 2: DKTHTCPPCPAPEFEGGPSVFLFPPKPKDTLMISRTPEVTCVVVDVSHEDPEVKFNWYVDGVEVHNAKTKPREEQYNSTYRVVSVLTVLHQDWLNGKEYKCKVSNKALPASIEKTISKAKGQPREPQVCTLPPSREEMTKNQVSLSCAVKGFYPSDIAVEWESNGQPENNYKTTPPVLDSDGSFFLVSKLTVDKSRWQQGNVFSCSVMHEALHNHYTQKSLSLSPGGGGGSGGGGSGGGGSGGGGGSSWMEEVIKLCGRELVRAQIAICGMSTWS | 2.92e-11 | > 1.27e-07 | 5.92e-11 |
| RELAX0041 (Fc fusion) chain 1: DKTHTACPPCPAPEFEGGPSVFLFPPKPKDTLMISRTPEVTCVVVDVSHEDPEVKFNWYVDGVEVHNAKTKPREEQYNSTYRVVSVLTVLHQDWLNGKEYKCKVSNKALPASIEKTISKAKGQPREPQVYTLPPCREEMTKNQVSLWCLVKGFYPSDIAVEWESNGQPENNYKTTPPVLDSDGSFFLYSKLTVDKSRWQQGNVFSCSVMHEALHNHYTQKSLSLSPGGGGGSGGGGSGGGGSGGGGGSQLYSALANHCCHVGCTKRSLARFC chain 2: DKTHTCPPCPAPEFEGGPSVFLFPPKPKDTLMISRTPEVTCVVVDVSHEDPEVKFNWYVDGVEVHNAKTKPREEQYNSTYRVVSVLTVLHQDWLNGKEYKCKVSNKALPASIEKTISKAKGQPREPQVCTLPPSREEMTKNQVSLSCAVKGFYPSDIAVEWESNGQPENNYKTTPPVLDSDGSFFLVSKLTVDKSRWQQGNVFSCSVMHEALHNHYTQKSLSLSPGGGGGSGGGGSGGGGSGGGGGSSWMEEVIKLCGRELVRAQIAICGMSTWS | 3.17e-11 | 1.18e-07 | 6.22e-11 |

Now from value to binder:

| EC50 mRXFP1 (M), cAMP HTRF assay [1] [M] | EC50 hRXFP2 (M), cAMP HTRF assay [2] [M] | EC50 hRXFP1 (M), cAMP HTRF assay [3] [M] | Binder |
| --- | --- | --- | --- |
| 5.58e-11 | > 1.58e-07 | 7.98e-11 | RELAX0043 (Fc fusion) chain 1: DKTHTACPPCPAPEFEGGPSVFLFPPKPKDTLMISRTPEVTCVVVDVSHEDPEVKFNWYVDGVEVHNAKTKPREEQYNSTYRVVSVLTVLHQDWLNGKEYKCKVSNKALPASIEKTISKAKGQPREPQVYTLPPCREEMTKNQVSLWCLVKGFYPSDIAVEWESNGQPENNYKTTPPVLDSDGSFFLYSKLTVDKSRWQQGNVFSCSVMHEALHNHYTQKSLSLSPGGGGGSGGGGSGGGGSGGGGGSQLYSALANECCHVGCTKRSLARFC chain 2: DKTHTCPPCPAPEFEGGPSVFLFPPKPKDTLMISRTPEVTCVVVDVSHEDPEVKFNWYVDGVEVHNAKTKPREEQYNSTYRVVSVLTVLHQDWLNGKEYKCKVSNKALPASIEKTISKAKGQPREPQVCTLPPSREEMTKNQVSLSCAVKGFYPSDIAVEWESNGQPENNYKTTPPVLDSDGSFFLVSKLTVDKSRWQQGNVFSCSVMHEALHNHYTQKSLSLSPGGGGGSGGGGSGGGGSGGGGGSSWMEEVIKLCGRELVRAQIAICGMSTWS |
| 5.69e-11 | 1.05e-07 | 9.67e-11 | RELAX0052 (Fc fusion) chain 1: DKTHTACPPCPAPEFEGGPSVFLFPPKPKDTLMISRTPEVTCVVVDVSHEDPEVKFNWYVDGVEVHNAKTKPREEQYNSTYRVVSVLTVLHQDWLNGKEYKCKVSNKALPASIEKTISKAKGQPREPQVYTLPPCREEMTKNQVSLWCLVKGFYPSDIAVEWESNGQPENNYKTTPPVLDSDGSFFLYSKLTVDKSRWQQGNVFSCSVMHEALHNHYTQKSLSLSPGGGGGSGGGGSGGGGSGGGGGSQLYSALANKCCHVGCTKESLARFC chain 2: DKTHTCPPCPAPEFEGGPSVFLFPPKPKDTLMISRTPEVTCVVVDVSHEDPEVKFNWYVDGVEVHNAKTKPREEQYNSTYRVVSVLTVLHQDWLNGKEYKCKVSNKALPASIEKTISKAKGQPREPQVCTLPPSREEMTKNQVSLSCAVKGFYPSDIAVEWESNGQPENNYKTTPPVLDSDGSFFLVSKLTVDKSRWQQGNVFSCSVMHEALHNHYTQKSLSLSPGGGGGSGGGGSGGGGSGGGGGSSWMEEVIKLCGRELVRAQIAICGMSTWS |
| 4.36e-11 | > 1.79e-07 | 7.15e-11 | RELAX0053 (Fc fusion) chain 1: DKTHTACPPCPAPEFEGGPSVFLFPPKPKDTLMISRTPEVTCVVVDVSHEDPEVKFNWYVDGVEVHNAKTKPREEQYNSTYRVVSVLTVLHQDWLNGKEYKCKVSNKALPASIEKTISKAKGQPREPQVYTLPPCREEMTKNQVSLWCLVKGFYPSDIAVEWESNGQPENNYKTTPPVLDSDGSFFLYSKLTVDKSRWQQGNVFSCSVMHEALHNHYTQKSLSLSPGGGGGSGGGGSGGGGSGGGGGSQLYSALANKCCHVGCTKHSLARFC chain 2: DKTHTCPPCPAPEFEGGPSVFLFPPKPKDTLMISRTPEVTCVVVDVSHEDPEVKFNWYVDGVEVHNAKTKPREEQYNSTYRVVSVLTVLHQDWLNGKEYKCKVSNKALPASIEKTISKAKGQPREPQVCTLPPSREEMTKNQVSLSCAVKGFYPSDIAVEWESNGQPENNYKTTPPVLDSDGSFFLVSKLTVDKSRWQQGNVFSCSVMHEALHNHYTQKSLSLSPGGGGGSGGGGSGGGGSGGGGGSSWMEEVIKLCGRELVRAQIAICGMSTWS |
| 4.46e-11 | > 1.38e-07 | 1.96e-10 | RELAX0063 (Fc fusion) chain 1: DKTHTCPPCPAPEFEGGPSVFLFPPKPKDTLMISRTPEVTCVVVDVSHEDPEVKFNWYVDGVEVHNAKTKPREEQYNSTYRVVSVLTVLHQDWLNGKEYKCKVSNKALPASIEKTISKAKGQPREPQVYTLPPCREEMTKNQVSLWCLVKGFYPSDIAVEWESNGQPENNYKTTPPVLDSDGSFFLYSKLTVDKSRWQQGNVFSCSVMHEALHNHYTQKSLSLSPGGGGGSGGGGSGGGGSGGGGGSQLYSALANKCCHVGCTKRSLARAC chain 2: DKTHTCPPCPAPEFEGGPSVFLFPPKPKDTLMISRTPEVTCVVVDVSHEDPEVKFNWYVDGVEVHNAKTKPREEQYNSTYRVVSVLTVLHQDWLNGKEYKCKVSNKALPASIEKTISKAKGQPREPQVCTLPPSREEMTKNQVSLSCAVKGFYPSDIAVEWESNGQPENNYKTTPPVLDSDGSFFLVSKLTVDKSRWQQGNVFSCSVMHEALHNHYTQKSLSLSPGGGGGSGGGGSGGGGSGGGGGSSWMEEVIKLCGRELVRAQIAICGMSTWS |
